Tests used:
[1] = target: membrane-bound HLA-G*01:04 on K562 cells (human); assay: flow cytometry on cells; 1 x 10^6 K562 cells presenting HLA-G*01:0x incubated with 200 nM purified sNKG2A/CD94 or sNKG2C/CD94 for 2 h at 37 °C; detection by anti-V5-tag antibody and PE-coupled secondary antibody; three technical replicates
[2] = target: membrane-bound HLA-G*01:03 on K562 cells (human); assay: as above

percent binding (flow cytometry) [1]: 57.7% | percent binding (flow cytometry) [2]: 17.4%
Substance: recombinant soluble heterodimeric NKG2A/CD94 (from UniProt P26715 1-233; Q13241 1-179) (complex)

Source: paper PMC7352787
